According to patent US20140107021A1 (priority 2010, published 2014):
Numbered stars: 1 amine (or outer) side, 2 acyl side, 3 side chain; on linkers, the order of the positions; unused ones are H or OH. Bridge positions count the residues as written; N and C are the ends. Square brackets hold non-standard residues; d marks the D form. Side chains are listed from the residue outwards. Ends that are not written are not given here. * marks the point of attachment. PEG 40 kDa = PEG of 40 kDa covalently attached to Cys; γGlu = O=C(O)[C@H](CCC(=O)[*:2])N[*:1]; C16 acyl = 16 carbon fatty acyl group; PEG40kDa = 40 kDa polyethylene glycol; Myristoyl = CCCCCCCCCCCCCC(=O)*; Ac‑Cys = acetylated cysteine; Aib = CC(C)(N)C(=O)O

Experiments:
Type in all cases: cell-based
[1] = target: T1, GLP-1 receptor (Homo sapiens, UniProt P43220); experiment: cAMP induction at the GLP-1 receptor (agonist activity), firefly luciferase reporter assay in HEK293 cells
T1 construct: expressed in transfected cells; host or cells: HEK293
T1 sequence (P43220 24-463): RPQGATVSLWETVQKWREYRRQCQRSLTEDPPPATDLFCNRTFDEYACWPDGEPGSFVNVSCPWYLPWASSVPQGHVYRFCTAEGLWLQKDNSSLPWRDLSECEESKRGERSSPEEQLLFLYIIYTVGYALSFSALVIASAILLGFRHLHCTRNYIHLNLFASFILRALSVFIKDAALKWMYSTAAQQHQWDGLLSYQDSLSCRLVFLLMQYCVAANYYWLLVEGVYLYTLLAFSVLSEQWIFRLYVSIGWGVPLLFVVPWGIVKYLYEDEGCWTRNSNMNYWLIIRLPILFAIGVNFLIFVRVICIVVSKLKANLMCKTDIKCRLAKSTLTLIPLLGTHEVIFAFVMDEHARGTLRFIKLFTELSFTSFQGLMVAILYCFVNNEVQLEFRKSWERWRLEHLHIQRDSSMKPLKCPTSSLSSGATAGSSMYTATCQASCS
Description: (§1) HEK293 cells co-transfected with the receptor and luciferase gene linked to a cAMP responsive element were employed for the bioassay.
(§2) All EC50s and IC50s are reported in the following examples in nM, unless indicated otherwise.

[2] = target: T2, GIP receptor (Homo sapiens, UniProt P48546); experiment: cAMP induction at the GIP receptor (agonist activity), luciferase reporter assay in HEK293 cells
T2 construct: expressed in transfected cells; host or cells: HEK293
T2 sequence (P48546 22-466): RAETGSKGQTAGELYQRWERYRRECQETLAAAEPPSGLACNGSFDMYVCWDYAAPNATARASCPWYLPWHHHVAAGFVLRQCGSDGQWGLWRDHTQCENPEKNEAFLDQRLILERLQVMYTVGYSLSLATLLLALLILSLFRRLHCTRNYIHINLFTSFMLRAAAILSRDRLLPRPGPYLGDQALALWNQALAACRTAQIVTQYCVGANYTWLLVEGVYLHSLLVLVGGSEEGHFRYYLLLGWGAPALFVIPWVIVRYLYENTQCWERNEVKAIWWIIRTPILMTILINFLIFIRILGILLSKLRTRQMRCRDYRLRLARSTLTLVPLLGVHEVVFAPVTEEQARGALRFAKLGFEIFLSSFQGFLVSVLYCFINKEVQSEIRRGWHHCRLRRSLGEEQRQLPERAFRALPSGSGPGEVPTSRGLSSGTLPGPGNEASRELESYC
Description: as §1, §2

[3] = target: glucagon receptor (Homo sapiens, UniProt P47871); experiment: cAMP induction at the glucagon receptor (agonist activity), luciferase reporter assay in HEK293 cells; parameters: expressed in transfected cells; host or cells: HEK293
glucagon receptor, sequence (P47871 26-477): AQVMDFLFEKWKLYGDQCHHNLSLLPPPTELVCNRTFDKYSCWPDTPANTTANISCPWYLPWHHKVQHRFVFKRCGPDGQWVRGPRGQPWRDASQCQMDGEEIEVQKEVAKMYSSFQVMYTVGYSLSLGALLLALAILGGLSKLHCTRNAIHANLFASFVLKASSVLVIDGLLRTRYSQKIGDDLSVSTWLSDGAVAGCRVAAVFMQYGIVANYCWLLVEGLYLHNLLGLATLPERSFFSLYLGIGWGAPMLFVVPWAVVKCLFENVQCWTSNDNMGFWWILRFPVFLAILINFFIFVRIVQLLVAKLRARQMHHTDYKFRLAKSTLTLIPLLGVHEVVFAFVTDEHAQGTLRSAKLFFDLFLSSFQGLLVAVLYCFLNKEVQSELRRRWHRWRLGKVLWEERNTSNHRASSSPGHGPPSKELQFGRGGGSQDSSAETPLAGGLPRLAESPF
Description: as §1, §2

[4] = Table 6, relative to the native ligand at the receptor
[5] = Table 7, relative to the native ligand of the receptor

E3C24-PEG-K40-C14 (Y[Aib]EGTFTSDYSIYLDKQAA[Aib]EFVC(PEG 40 kDa)WLLAGGPSSGAPPPSK(Myristoyl)-NH2) [MT-353]
% Relative Activity GLP-1R ([1]; Table 9): 128.6% | % Relative Activity at GIPR ([2]; Table 9): 102.9% | % Relative Activity at GR ([3]; Table 9): 0.17%

E3K16AIB2,20K10(C16) (Y[Aib]EGTFTSDK(C16 acyl)SIYLDKQAA[Aib]EFVNWLLAGGPSSGAPPPS-NH2) [MT-270]
% Relative Activity GLP-1R [1, 4]: 212% | % Relative Activity GLP-1R ([1]; Table 9): 211.8% | % Relative Activity at GIPR [2, 4]: 163% | % Relative Activity at GIPR ([2]; Table 9): 163.3% | % Relative Activity at GR [3, 4]: 0.1% | % Relative Activity at GR ([3]; Table 9): 0.06%

K40-C16 (Y[Aib]QGTFTSDYSIYLDKQAA[Aib]EFVNWLLAGGPSSGAPPPSK(C16 acyl)-NH2) [MT-278]
% Relative Activity GLP-1R ([1]; Table 9): 459.5% | % Relative Activity at GIPR ([2]; Table 9): 846.4% | % Relative Activity at GR ([3]; Table 9): 588.4%

Q3K16AIB20K10(rErE-C16) (Y[Aib]QGTFTSDK([γGlu-γGlu-C16 acyl])SIYLDKQAA[Aib]EFVNWLLAGGPSSGAPPPS-NH2) [MT-384]
% Relative Activity GLP-1R [1, 5]: 349% | % Relative Activity at GIPR [2, 5]: 808% | % Relative Activity at GR [3, 5]: 228%

Y1Aib2I7I12K16Q17A18Aib20E21N24-LAG27-29-CEX-K (YXQGTFISDYSIYLDKQAAXEFVNWLLAGGPSSGAPPPSK; HELM PEPTIDE1{Y.[Aib].Q.G.T.F.I.S.D.Y.S.I.Y.L.D.K.Q.A.A.[Aib].E.F.V.N.W.L.L.A.G.G.P.S.S.G.A.P.P.P.S.K.[am]}$$$$V2.0; N-terminus assumed; SMILES CC[C@H](C)[C@H](NC(=O)[C@H](CO)NC(=O)[C@H](Cc1ccc(O)cc1)NC(=O)[C@H](CC(=O)O)NC(=O)[C@H](CO)NC(=O)[C@@H](NC(=O)[C@H](Cc1ccccc1)NC(=O)[C@@H](NC(=O)CNC(=O)[C@H](CCC(N)=O)NC(=O)C(C)(C)NC(=O)[C@@H](N)Cc1ccc(O)cc1)[C@@H](C)O)[C@@H](C)CC)C(=O)N[C@@H](Cc1ccc(O)cc1)C(=O)N[C@@H](CC(C)C)C(=O)N[C@@H](CC(=O)O)C(=O)N[C@@H](CCCCN)C(=O)N[C@@H](CCC(N)=O)C(=O)N[C@@H](C)C(=O)N[C@@H](C)C(=O)NC(C)(C)C(=O)N[C@@H](CCC(=O)O)C(=O)N[C@@H](Cc1ccccc1)C(=O)N[C@H](C(=O)N[C@@H](CC(N)=O)C(=O)N[C@@H](Cc1c[nH]c2ccccc12)C(=O)N[C@@H](CC(C)C)C(=O)N[C@@H](CC(C)C)C(=O)N[C@@H](C)C(=O)NCC(=O)NCC(=O)N1CCC[C@H]1C(=O)N[C@@H](CO)C(=O)N[C@@H](CO)C(=O)NCC(=O)N[C@@H](C)C(=O)N1CCC[C@H]1C(=O)N1CCC[C@H]1C(=O)N1CCC[C@H]1C(=O)N[C@@H](CO)C(=O)N[C@@H](CCCCN)C(N)=O)C(C)C) [MT-357]
% Relative Activity GLP-1R ([1]; Table 8): 0.81% | % Relative Activity at GIPR ([2]; Table 8): 198% | % Relative Activity at GR ([3]; Table 8): 170%

mt-217: lactam 16-20 glucagon analog, Lys24 carrying Ala spacer, acetylated Cys and 40 kDa PEG; SEQ ID NO: 19 (Y[Aib]QGTFTSDYSIYLDEQAAKEFVK([Ala-Ac‑Cys-PEG40kDa])FLLAGGPSSGAPPPS-NH2; lactam 16-20)
GLP-1R relative activity ([1]; Table 5, relative to standard): 11.26% | GIPR relative activity ([2]; Table 5, relative to standard): 0.20% | EC50 ([3]; Table 5, read-out: GR EC50): 0.0139 µM | GR relative activity ([3]; Table 5, relative to standard): 0.82%
